Experimental findings from patent US11278600B2, “Human alpha-galactosidase variants” (Codexis, Inc., priority 2014, dated 2022) are described below.

First the molecules themselves.
B1: 645 (protein)
chain: LDNGLARTPTMGWLHWERFMCNLDCQEEPDSCISEKLFMEMAERMVTEGWKDAGYEYLCIDDCWMAPQRDSEGRLQADPQRFPHGIRQLANHVHSKGLKLGIYADVGNKTCAGFPGSFGYYDIDAQTFADWGVDLLKFDGCYCDSLENLADGYKHMSLALNRTGRPIVYSCEWSLYMWPFQKPNYTEIRQYCNHWRNFADIDDSWASIKSILDWTSRNQERIVDVAGPGGWNDPDMLVIGNFGLSWDQQVTQMALWAIMAAPLFMSNDLRAISPQAKALLQDKDVIAINQDPLGKQGYQLRKGDNFEVWERPLSGDAWAVAIINRQEIGGPRSYTIPVASLGKGVACNPACFITQLLPVKRQLGFYNWTSRLKSHINPTGTVLLQLENTMQTSLKDLL
modifications: Synthetic Polypeptide sequence of Variant No. 645 of mature Human GLA
B2: 652 (protein)
chain: B1 chain with S174P, W246P, A261G, N305L
modifications: Synthetic Polypeptide sequence of Variant No. 652 of mature Human GLA
B3: 646 (protein)
chain: B1 chain with G113C, S174P
modifications: Synthetic Polypeptide sequence of Variant No. 646 of mature Human GLA
B4: 651 (protein)
chain: B1 chain with T10P, S174P
modifications: Synthetic Polypeptide sequence of Variant No. 651 of mature Human GLA
B5: 648 (protein)
chain: B1 chain with T10P, M39E, S174P, A261G, W368A
modifications: Synthetic Polypeptide sequence of Variant No. 648
B6: 656 (protein)
chain: B1 chain with T10P, S174P, W246P, A261G
modifications: Synthetic Polypeptide sequence of Variant No. 656 of mature Human GLA
B7: 653 (protein)
chain: B1 chain with T10P, S174P, W246P
modifications: Synthetic Polypeptide sequence of Variant No. 653 of mature Human GLA
B8: 654 (protein)
chain: B1 chain with R7S, S174P
modifications: Synthetic Polypeptide sequence of Variant No. 654 of mature Human GLA
B9: 657 (protein)
chain: B1 chain with P67T, S174P, K182N
modifications: Synthetic Polypeptide sequence of Variant No. 657 of mature Human GLA
B10: 649 (protein)
chain: B1 chain with T10P, M39E, S174P, W246P
modifications: Synthetic Polypeptide sequence of Variant No. 649 of mature Human GLA
B11: 650 (protein)
chain: B1 chain with R7H, T10P, S174P
modifications: Synthetic Polypeptide sequence of Variant No. 650 of mature Human GLA
B12: 655 (protein)
chain: B1 chain with S174P, W246P, A261G, N305L, W368A
modifications: Synthetic Polypeptide sequence of Variant No. 655 of mature Human GLA
B13: 647 (protein)
chain: LDNGLARTPTMGWLHWERFMCNLDCQEEPDSCISEKLFMEMAERMVSEGWKDAGYEYLCIDDCWMAPQRDSEGRLQADPQRFPHGIRQLANYVHSIGLKLGIYADVGNKTCAGFPGSFGYYDIDAQTFADWGVDLLKFDGCYCDSLENLADGYKHMSLALNRTGRSIVYSCEWPLYMWPFQKPNYTEIRQYCNHWRNFADIDDSWASIKSILDWTSRNQERIVDVAGPGGWNDPDMLVIGNFGLSWNQQVTQMALWAIMAAPLFMSNDLRHISPQAKALLQDKDVIAINQDPLGKQGYQLRKGDNFEVWERPLSGLAWAVAIINRQEIGGPRSYTIAVASLGKGVACNPGCFITQLLPVKRQLGFYNWSSRLKSHINPTGTVLLQLENTMQMSLKDLL
modifications: Synthetic Polypeptide sequence of Variant No. 346 of mature Human GLA

Positions count from the first letter of the chain named.

One data set in a line: HTP-analysis of yeast culture supernatants, no challenge (MUGal hydrolysis). The format is biochemical. The following applies: activity of the variant/activity of Rd7BB (SEQ ID NO: 44). The procedure, abridged:
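GLA variants were expressed in INVSc1 yeast grown in SD-Ura broth with glucose at 30° C., and culture supernatants were collected after 66-84 h. Supernatant was mixed with McIlvaine buffer pH 4.8 and MUGal (2 mM stock) in 50 mM citrate, 200 mM KCl, pH 4.6, incubated at 37° C. for 30-180 minutes, then quenched with sodium carbonate.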
Turning to B1, the “Relative Activity of GLA Variants After No Challenge (NC)” value is reported as “+ (>0.5 to 1.5 relative activity over Rd7BB (SEQ ID NO: 44))”.
Still for that read-out and setting: with B2 the entry was “+ (>0.5 to 1.5 relative activity over Rd7BB (SEQ ID NO: 44))”.
On the same count and under the same terms, to B3 belongs “− (<0.5 relative activity to Rd7BB (SEQ ID NO: 44))”; to B4, “+ (>0.5 to 1.5 relative activity over Rd7BB (SEQ ID NO: 44))”; to B5, “+ (>0.5 to 1.5 relative activity over Rd7BB (SEQ ID NO: 44))”.
In the case of B6, the “Relative Activity of GLA Variants After No Challenge (NC)” value is given as “+ (>0.5 to 1.5 relative activity over Rd7BB (SEQ ID NO: 44))”.
The same measure, in the same setting: to B7 belongs “+ (>0.5 to 1.5 relative activity over Rd7BB (SEQ ID NO: 44))”; to B8, “+ (>0.5 to 1.5 relative activity over Rd7BB (SEQ ID NO: 44))”.
On the same count and under the same terms, with B9 the entry was “+ (>0.5 to 1.5 relative activity over Rd7BB (SEQ ID NO: 44))”; with B10, “+ (>0.5 to 1.5 relative activity over Rd7BB (SEQ ID NO: 44))”; with B11, “+ (>0.5 to 1.5 relative activity over Rd7BB (SEQ ID NO: 44))”.
The same measure, in the same setting: with B12 the entry was “+ (>0.5 to 1.5 relative activity over Rd7BB (SEQ ID NO: 44))”.
As to B13, the “Relative Activity of GLA Variants After No Challenge (NC)” value is recorded as “− (<0.5 relative activity to Rd7BB (SEQ ID NO: 44))”.

The nature of a further data set: HTP-analysis of supernatants pretreated with acid (MUGal hydrolysis). The format is biochemical. The following applies: activity of the variant/activity of Rd7BB (SEQ ID NO: 44); challenge at pH 3.5. In short, it runs like this:
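Supernatants from INVSc1 yeast secreting GLA variants were challenged at 37° C. for 1-3 h in McIlvaine buffer at pH 3.3-4.3. Residual activity was then measured on 4 mM MUGal substrate stock at pH 4.8 with citrate buffer pH 4.3, over 30-180 min at 37° C. Reactions were quenched with sodium carbonate and read by fluorescence (Ex 355/Em 448 nm).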
In the case of B1, the “Relative Activity of GLA Variants After Challenge at pH 3.5” value (“Relative Activity … at pH 3.5” below) is recorded as “+ (>0.5 to 1.5 relative activity over Rd7BB (SEQ ID NO: 44))”.
The same measure, in the same setting: with B2 the entry was “+ (>0.5 to 1.5 relative activity over Rd7BB (SEQ ID NO: 44))”.
Same read-out and setting: to B3 belongs “− (<0.5 relative activity to Rd7BB (SEQ ID NO: 44))”.
The same measure, in the same setting: with B4 the entry was “+ (>0.5 to 1.5 relative activity over Rd7BB (SEQ ID NO: 44))”.
With B5, the “Relative Activity … at pH 3.5” value is “+ (>0.5 to 1.5 relative activity over Rd7BB (SEQ ID NO: 44))”.
The same measure, in the same setting: with B6 the entry was “+ (>0.5 to 1.5 relative activity over Rd7BB (SEQ ID NO: 44))”; with B7, “+ (>0.5 to 1.5 relative activity over Rd7BB (SEQ ID NO: 44))”.
On to B8, for which the “Relative Activity … at pH 3.5” value is “+ (>0.5 to 1.5 relative activity over Rd7BB (SEQ ID NO: 44))”.
The same measure, in the same setting: to B9 belongs “+ (>0.5 to 1.5 relative activity over Rd7BB (SEQ ID NO: 44))”; to B10, “+ (>0.5 to 1.5 relative activity over Rd7BB (SEQ ID NO: 44))”; to B11, “+ (>0.5 to 1.5 relative activity over Rd7BB (SEQ ID NO: 44))”.
On the same count and under the same terms, with B12 the entry was “− (<0.5 relative activity to Rd7BB (SEQ ID NO: 44))”.
The same measure, in the same setting: with B13 the entry was “− (<0.5 relative activity to Rd7BB (SEQ ID NO: 44))”.

A short description of another data set: HTP-analysis of supernatants pretreated with base (MUGal hydrolysis). The format is biochemical. The settings on record: activity of the variant/activity of Rd7BB (SEQ ID NO: 44); challenge at pH 7.5. The procedure, abridged: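 Fluorescence of released 4-MU (Ex 355 nm, Em 448 nm) after carbonate quench reports MUGal hydrolysis by GLA variants secreted from INVSc1 yeast. Before the acidic (pH 4.3-4.8) 30-180 min reaction at 37° C, supernatants had been pre-incubated at pH 7.0-9.7 for 1-18 h at 37° C.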
B1: the “Relative Activity of GLA Variants After Challenge at pH 7.5” value (“Relative Activity … at pH 7.5” for short) is “− (<0.5 relative activity to Rd7BB (SEQ ID NO: 44))”.
Still for that read-out and setting: to B2 belongs “− (<0.5 relative activity to Rd7BB (SEQ ID NO: 44))”; to B3, “− (<0.5 relative activity to Rd7BB (SEQ ID NO: 44))”; to B4, “+ (>0.5 to 1.5 relative activity over Rd7BB (SEQ ID NO: 44))”.
Same read-out and setting: to B5 belongs “+ (>0.5 to 1.5 relative activity over Rd7BB (SEQ ID NO: 44))”; to B6, “+ (>0.5 to 1.5 relative activity over Rd7BB (SEQ ID NO: 44))”; to B7, “+ (>0.5 to 1.5 relative activity over Rd7BB (SEQ ID NO: 44))”.
For B8, the “Relative Activity … at pH 7.5” value is given as “+ (>0.5 to 1.5 relative activity over Rd7BB (SEQ ID NO: 44))”.
Turning to B9, the “Relative Activity … at pH 7.5” value is listed as “+ (>0.5 to 1.5 relative activity over Rd7BB (SEQ ID NO: 44))”.
With B10, the “Relative Activity … at pH 7.5” value is “+ (>0.5 to 1.5 relative activity over Rd7BB (SEQ ID NO: 44))”.
The same measure, in the same setting: with B11 the entry was “+ (>0.5 to 1.5 relative activity over Rd7BB (SEQ ID NO: 44))”.
Same read-out and setting: with B12 the entry was “− (<0.5 relative activity to Rd7BB (SEQ ID NO: 44))”; with B13, “− (<0.5 relative activity to Rd7BB (SEQ ID NO: 44))”.
